To fix the notation:
B1: W3XX115-T2U10.Z73-60.uIgG4V322 (Fc fusion)
chain 1: APTSSSTKKTQLQLEHLLLDLQMILNGINNYDNPKLTRMLTIKFYMPKKATELKHLQCLEEELKPLEEVLNLAQSKNFHLRPRDLISNINVRVLELKGSETTFMCEYADETATIVEFLNRWITFCQSILESKYGPPCPPCPAPEAAGGPSVFLFPPKPKDTLMISRTPEVTCVVVDVSQEDPEVQFNWYVDGVEVHNAKTKPREEQFNSTYRVVSVLTVLHQDWLNGKEYKCKVSNKGLPSSIEKTISKAKGQPREPQVYTLPPCQEEMTKNQVSLWCLVKGFYPSDIAVEWESNGQPENNYKTTPPVLDSDGSFFLYSRLTVDKSRWQEGNVFSCSVMHEALHNHYTQKSLSLSLGK
chain 2: QVQLVESGGGVVQPGGSLRLSCAASDSIDSLVNMGWYRQAPGKQRELVALIATYITHYADFVKGRFTISRDNSKNTLYLQMNSLRAEDTAVYYCYARNIIVDYWGQGTLVTVSSGGGGSGGGGSGGGGSQVQLVESGGGVVQPGGSLRLSCAASDSIDSLVNMGWYRQAPGKQRELVALIATYITHYADFVKGRFTISRDNSKNTLYLQMNSLRAEDTAVYYCYARNIIVDYWGQGTLVTVSSESKYGPPCPPCPAPEAAGGPSVFLFPPKPKDTLMISRTPEVTCVVVDVSQEDPEVQFNWYVDGVEVHNAKTKPREEQFNSTYRVVSVLTVLHQDWLNGKEYKCKVSNKGLPSSIEKTISKAKGQPREPQVCTLPPSQEEMTKNQVSLSCAVKGFYPSDIAVEWESNGQPENNYKTTPPVLDSDGSFFLVSRLTVDKSRWQEGNVFSCSVMHEALHNHYTQKSLSLSLG
B2: W3XX115-T2U10.Z73-62.uIgG4V322 (Fc fusion)
chain 1: APTSSSTKKTQLQLEHLLLDLQMILNGINNYDNPKLTRMLTIKFYMPKKATELKHLQCLEEELKPLEEVLNLAQSKNFHLRPRDLISNINVIVDELKGSETTFMCEYADETATIVEFLNRWITFCQSILESKYGPPCPPCPAPEAAGGPSVFLFPPKPKDTLMISRTPEVTCVVVDVSQEDPEVQFNWYVDGVEVHNAKTKPREEQFNSTYRVVSVLTVLHQDWLNGKEYKCKVSNKGLPSSIEKTISKAKGQPREPQVYTLPPCQEEMTKNQVSLWCLVKGFYPSDIAVEWESNGQPENNYKTTPPVLDSDGSFFLYSRLTVDKSRWQEGNVFSCSVMHEALHNHYTQKSLSLSLGK
chain 2: QVQLVESGGGVVQPGGSLRLSCAASDSIDSLVNMGWYRQAPGKQRELVALIATYITHYADFVKGRFTISRDNSKNTLYLQMNSLRAEDTAVYYCYARNIIVDYWGQGTLVTVSSGGGGSGGGGSGGGGSQVQLVESGGGVVQPGGSLRLSCAASDSIDSLVNMGWYRQAPGKQRELVALIATYITHYADFVKGRFTISRDNSKNTLYLQMNSLRAEDTAVYYCYARNIIVDYWGQGTLVTVSSESKYGPPCPPCPAPEAAGGPSVFLFPPKPKDTLMISRTPEVTCVVVDVSQEDPEVQFNWYVDGVEVHNAKTKPREEQFNSTYRVVSVLTVLHQDWLNGKEYKCKVSNKGLPSSIEKTISKAKGQPREPQVCTLPPSQEEMTKNQVSLSCAVKGFYPSDIAVEWESNGQPENNYKTTPPVLDSDGSFFLVSRLTVDKSRWQEGNVFSCSVMHEALHNHYTQKSLSLSLG
B3: W3XX115-T2U10.Z73-64.uIgG4V322 (Fc fusion)
chain 1: APTSSSTKKTQLQLEHLLLDLQMILNGINNYDNPKLTRMLTIKFYMPKKATELKHLQCLEEELKPLEEVLNLAQSKNFHLRPRDLISNINVIVLELKGSETTFMCEYADETATIVEFLRRWITFCQSILESKYGPPCPPCPAPEAAGGPSVFLFPPKPKDTLMISRTPEVTCVVVDVSQEDPEVQFNWYVDGVEVHNAKTKPREEQFNSTYRVVSVLTVLHQDWLNGKEYKCKVSNKGLPSSIEKTISKAKGQPREPQVYTLPPCQEEMTKNQVSLWCLVKGFYPSDIAVEWESNGQPENNYKTTPPVLDSDGSFFLYSRLTVDKSRWQEGNVFSCSVMHEALHNHYTQKSLSLSLGK
chain 2: QVQLVESGGGVVQPGGSLRLSCAASDSIDSLVNMGWYRQAPGKQRELVALIATYITHYADFVKGRFTISRDNSKNTLYLQMNSLRAEDTAVYYCYARNIIVDYWGQGTLVTVSSGGGGSGGGGSGGGGSQVQLVESGGGVVQPGGSLRLSCAASDSIDSLVNMGWYRQAPGKQRELVALIATYITHYADFVKGRFTISRDNSKNTLYLQMNSLRAEDTAVYYCYARNIIVDYWGQGTLVTVSSESKYGPPCPPCPAPEAAGGPSVFLFPPKPKDTLMISRTPEVTCVVVDVSQEDPEVQFNWYVDGVEVHNAKTKPREEQFNSTYRVVSVLTVLHQDWLNGKEYKCKVSNKGLPSSIEKTISKAKGQPREPQVCTLPPSQEEMTKNQVSLSCAVKGFYPSDIAVEWESNGQPENNYKTTPPVLDSDGSFFLVSRLTVDKSRWQEGNVFSCSVMHEALHNHYTQKSLSLSLG
B4: W3XX115-T2U10.Z73-63.uIgG4V322 (Fc fusion)
chain 1: APTSSSTKKTQLQLEHLLLDLQMILNGINNYDNPKLTRMLTIKFYMPKKATELKHLQCLEEELKPLEEVLNLAQSKNFHLRPRDLISNINVIVLRLKGSETTFMCEYADETATIVEFLNRWITFCQSILESKYGPPCPPCPAPEAAGGPSVFLFPPKPKDTLMISRTPEVTCVVVDVSQEDPEVQFNWYVDGVEVHNAKTKPREEQFNSTYRVVSVLTVLHQDWLNGKEYKCKVSNKGLPSSIEKTISKAKGQPREPQVYTLPPCQEEMTKNQVSLWCLVKGFYPSDIAVEWESNGQPENNYKTTPPVLDSDGSFFLYSRLTVDKSRWQEGNVFSCSVMHEALHNHYTQKSLSLSLGK
chain 2: QVQLVESGGGVVQPGGSLRLSCAASDSIDSLVNMGWYRQAPGKQRELVALIATYITHYADFVKGRFTISRDNSKNTLYLQMNSLRAEDTAVYYCYARNIIVDYWGQGTLVTVSSGGGGSGGGGSGGGGSQVQLVESGGGVVQPGGSLRLSCAASDSIDSLVNMGWYRQAPGKQRELVALIATYITHYADFVKGRFTISRDNSKNTLYLQMNSLRAEDTAVYYCYARNIIVDYWGQGTLVTVSSESKYGPPCPPCPAPEAAGGPSVFLFPPKPKDTLMISRTPEVTCVVVDVSQEDPEVQFNWYVDGVEVHNAKTKPREEQFNSTYRVVSVLTVLHQDWLNGKEYKCKVSNKGLPSSIEKTISKAKGQPREPQVCTLPPSQEEMTKNQVSLSCAVKGFYPSDIAVEWESNGQPENNYKTTPPVLDSDGSFFLVSRLTVDKSRWQEGNVFSCSVMHEALHNHYTQKSLSLSLG
B5: W3XX115-T2U10.Z73-61.uIgG4V322 (Fc fusion)
chain 1: APTSSSTKKTQLQLEHLLLDLQMILNGINNYDNPKLTRMLTIKFYMPKKATELKHLQCLEEELKPLEEVLNLAQSKNFHLRPRDLISNINVDVLELKGSETTFMCEYADETATIVEFLNRWITFCQSILESKYGPPCPPCPAPEAAGGPSVFLFPPKPKDTLMISRTPEVTCVVVDVSQEDPEVQFNWYVDGVEVHNAKTKPREEQFNSTYRVVSVLTVLHQDWLNGKEYKCKVSNKGLPSSIEKTISKAKGQPREPQVYTLPPCQEEMTKNQVSLWCLVKGFYPSDIAVEWESNGQPENNYKTTPPVLDSDGSFFLYSRLTVDKSRWQEGNVFSCSVMHEALHNHYTQKSLSLSLGK
chain 2: QVQLVESGGGVVQPGGSLRLSCAASDSIDSLVNMGWYRQAPGKQRELVALIATYITHYADFVKGRFTISRDNSKNTLYLQMNSLRAEDTAVYYCYARNIIVDYWGQGTLVTVSSGGGGSGGGGSGGGGSQVQLVESGGGVVQPGGSLRLSCAASDSIDSLVNMGWYRQAPGKQRELVALIATYITHYADFVKGRFTISRDNSKNTLYLQMNSLRAEDTAVYYCYARNIIVDYWGQGTLVTVSSESKYGPPCPPCPAPEAAGGPSVFLFPPKPKDTLMISRTPEVTCVVVDVSQEDPEVQFNWYVDGVEVHNAKTKPREEQFNSTYRVVSVLTVLHQDWLNGKEYKCKVSNKGLPSSIEKTISKAKGQPREPQVCTLPPSQEEMTKNQVSLSCAVKGFYPSDIAVEWESNGQPENNYKTTPPVLDSDGSFFLVSRLTVDKSRWQEGNVFSCSVMHEALHNHYTQKSLSLSLG

The target of this assay is T1, IL-2Rβ/γc complex (intermediate affinity receptor) on primary human CD8+ T cells (human, UniProt P14784 27-551; P31785 23-369).
T1 sequence (looked up) 1: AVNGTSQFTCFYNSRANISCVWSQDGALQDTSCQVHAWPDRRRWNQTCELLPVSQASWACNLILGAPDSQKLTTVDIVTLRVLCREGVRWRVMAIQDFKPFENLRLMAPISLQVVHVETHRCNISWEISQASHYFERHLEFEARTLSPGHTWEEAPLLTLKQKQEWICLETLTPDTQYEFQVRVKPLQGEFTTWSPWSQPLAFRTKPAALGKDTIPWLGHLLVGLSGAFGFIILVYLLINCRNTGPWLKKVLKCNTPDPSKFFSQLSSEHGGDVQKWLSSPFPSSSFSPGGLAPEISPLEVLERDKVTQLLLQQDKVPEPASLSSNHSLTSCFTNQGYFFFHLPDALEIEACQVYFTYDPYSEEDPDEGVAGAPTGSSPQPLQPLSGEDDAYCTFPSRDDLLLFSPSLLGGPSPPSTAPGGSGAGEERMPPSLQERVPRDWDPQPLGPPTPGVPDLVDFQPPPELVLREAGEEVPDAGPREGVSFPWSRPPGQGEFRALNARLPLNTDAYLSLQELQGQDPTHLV
T1 sequence (looked up) 2: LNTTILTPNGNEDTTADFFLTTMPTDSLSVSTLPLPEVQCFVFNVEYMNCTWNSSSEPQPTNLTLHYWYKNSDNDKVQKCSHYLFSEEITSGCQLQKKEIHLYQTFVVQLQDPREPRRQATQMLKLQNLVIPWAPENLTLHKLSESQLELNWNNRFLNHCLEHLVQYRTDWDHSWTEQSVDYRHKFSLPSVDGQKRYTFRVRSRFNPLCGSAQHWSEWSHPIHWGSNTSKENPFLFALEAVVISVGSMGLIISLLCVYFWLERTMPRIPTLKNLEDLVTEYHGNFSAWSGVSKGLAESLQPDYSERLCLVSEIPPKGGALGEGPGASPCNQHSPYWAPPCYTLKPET
The assay is described as follows: cell-based or functional assay.
In the case of B1, the “Potency reduction, pSTAT5, human activated CD8+ T” value (shortened to “Potency reduction, pSTAT5”) stood at 10 fold. The result for B2 reads 6.5 fold; that for B3, 58.7 fold.

B4: the “Potency reduction, pSTAT5” value was 2.5 fold. Consider B5, for which the “Potency reduction, pSTAT5” value is 14.2 fold.
